{"source": "patent US11839219B2", "about": "“BVP10 protein for controlling tetranychid mites and use thereof” (priority 2021, dated 2023)", "molecules": {"B1": {"name": "BVP10 protein: protein shown in SEQ ID NO:2 for controlling tetranychid mites, prokaryotically expressed in Escherichia coli BL21, about 10 kDa (protein)", "chain": "MLKSKIKKIAGAAVIAGALLVSVSPAKAETLPGLIWVMDKYTDAFKFDMFIKNGNEKWVYVYTRLSDGKVDVEEVKCETIYKDRCYVKQ", "modifications": "Sequence for protein prepared by prokaryotic expression, eukaryotic expression, or direct synthesis, based the gene sequence of SEQ ID NO 1"}}, "key": {"[1]": {"system": "Panonychus citri", "assay": "Slide dipping method, miticidal activity against Panonychus citri", "settings": "for Mortality (%): 24 hrs after dipping; for Probability Unit (P + 5): probit of mortality", "from_the_text": "(§1) Referring to the standard method for determining pest mites, namely, the slide dipping method, recommended by the Food and Agriculture Organization of the United Nations (FAO), a double-faced adhesive tape is cut into pieces 2-3 cm long and stuck to one end of a microscope slide, and paper on the adhesive tape is removed with tweezers. Female adult mites with similar sizes, bright body color and high vitality are picked with a 0# Chinese writing brush, and are stuck to the double-faced adhesive tape (note: the feet, whiskers, and mouthparts of the mites should not be stuck) on their backs, with 4 lines stuck to each piece and 10 mites in each line. The mites are placed and left in a biochemical incubator with the temperature of 25° C. and a relative humidity of approximately 85% for 4 hrs, and then are observed with binoculars. […] The agent is diluted 5-7 times with water based on a preliminary test. One end of the slide with the mites is dipped into the agent solution, shaken lightly for 5 s and then taken out. The mites, as well as the excessive agent solution therearound, are rapidly dried with absorbent paper. The slide is placed and left in the above biochemical incubator. After 24 hrs, the results are checked with the binoculars. The bodies of the mites are lightly touched with the Chinese writing brush, and those without any motion of their feet are considered to be dead. The test is repeated three times at each concentration, and the mites dipped in fresh water are taken as a control. […] An LC50 value is calculated by using the SPASS 19.0 data processing software."}, "[2]": {"system": "Tetranychus urticae", "assay": "Slide dipping method, miticidal activity against Tetranychus urticae", "settings": "for Mortality (%): 24 hrs after dipping; for Probability Unit (P + 5): probit of mortality", "from_the_text": "as §1, with “by” for “by the”, “body color,” for “body color”, “incubator for 4 hrs at” for “incubator with the”, “approximately 85%,” for “approximately 85% for 4 hrs,”, “5 s,” for “5 s”, “using” for “using the”"}, "[3]": {"system": "strawberry red spider mites", "assay": "Field control of strawberry red spider mites", "type": "in vivo", "settings": "for Control effect (%): corrected against fresh water control", "experimental": "Test agents: 20% avermectin spirodiclofen suspension (Hebei Xingbai Agricultural Technology Co., Ltd., diluted 3000 times during use; and the biological mite pesticide BVP10 with the effective protein concentration of 389.5 μg/mL.\nThe test included three treatments, each repeated three times; blocks are randomly permuted; and the agents are applied to […] in each block with protective rows provided around the plants. […] Ten strawberry plants are taken from each block, with one leaf labeled for each plant. The number of red spider mites on both sides of each of the ten leaves are inspected. The red spider mites are directly observed with a hand-held magnifying lens, and the number of all living mites is taken down. The initial population number of the red spider mites is investigated before the application, and a total of three investigations are conducted on Day 1, Day 4, and Day 7 respectively after the application.\nCalculation method of pesticidal effect: the control effect is calculated based on the initial population number of the red spider mites before the application and the number of living red spider mites on each day after the application, and the calculation formula is shown below: The data is analyzed for significance using Duncan's new multiple range method of DPS software."}, "[4]": {"system": "Tetranychus cinnabarinus", "assay": "Slide dipping method, miticidal activity against Tetranychus cinnabarinus", "settings": "for Mortality (%): 24 hrs after dipping; for Probability Unit (P + 5): probit of mortality", "from_the_text": "as §1\nAn LC50 value is calculated by using the SPASS 19.0 data processing software."}, "[5]": {"settings": "Dose 19.475 μg/mL, female adult mites"}, "[6]": {"settings": "Dose 38.95 μg/mL, female adult mites"}, "[7]": {"settings": "Dose 77.9 μg/mL, female adult mites"}, "[8]": {"settings": "Dose 389.5 μg/mL, female adult mites"}, "[9]": {"settings": "Day 4 after application, field spray on strawberry leaves"}, "[10]": {"settings": "Day 7 after application, field spray on strawberry leaves"}}, "data": [{"molecule": "B1", "values": [{"measurement": "Mortality (%)", "setting": "[1]; [5]", "value": 23.5, "unit": "%"}, {"measurement": "Probability Unit (P + 5)", "setting": "[1]; Dose 19.475 μg/mL", "value": 4.276}, {"measurement": "Mortality (%)", "setting": "[1]; [6]", "value": 47.1, "unit": "%"}, {"measurement": "Probability Unit (P + 5)", "setting": "[1]; Dose 38.95 μg/mL", "value": 4.922}, {"measurement": "Mortality (%)", "setting": "[1]; [7]", "value": 63.6, "unit": "%"}, {"measurement": "Probability Unit (P + 5)", "setting": "[1]; Dose 77.9 μg/mL", "value": 5.349}, {"measurement": "Mortality (%)", "setting": "[1]; [8]", "value": 78.6, "unit": "%"}, {"measurement": "Probability Unit (P + 5)", "setting": "[1]; Dose 389.5 μg/mL", "value": 5.793}, {"measurement": "Medial Lethal Concentration (LC50, μg/mL)", "setting": "[1]; female adult mites, 24 hrs, regression Y = 3.0472 + 1.1072X (r = 0.9548)", "value": 58.05, "unit": "µg/mL"}, {"measurement": "Mortality (%)", "setting": "[2]; [5]", "value": 47.2, "unit": "%"}, {"measurement": "Probability Unit (P + 5)", "setting": "[2]; Dose 19.475 μg/mL", "value": 4.927}, {"measurement": "Mortality (%)", "setting": "[2]; [6]", "value": 60.6, "unit": "%"}, {"measurement": "Probability Unit (P + 5)", "setting": "[2]; Dose 38.95 μg/mL", "value": 5.268}, {"measurement": "Mortality (%)", "setting": "[2]; [7]", "value": 55.9, "unit": "%"}, {"measurement": "Probability Unit (P + 5)", "setting": "[2]; Dose 77.9 μg/mL", "value": 5.148}, {"measurement": "Mortality (%)", "setting": "[2]; [8]", "value": 68.4, "unit": "%"}, {"measurement": "Probability Unit (P + 5)", "setting": "[2]; Dose 389.5 μg/mL", "value": 5.483}, {"measurement": "Medial Lethal Concentration (LC50, μg/mL)", "setting": "[2]; female adult mites, 24 hrs, regression Y = 4.5286 + 0.3682X (r = 0.8832)", "value": 19.07, "unit": "µg/mL"}, {"measurement": "Control effect (%)", "setting": "[3]; Day 1 after application", "value": 79.53, "unit": "%"}, {"measurement": "Decline rate (%) of living mites", "setting": "[3]; Day 1 after application, field spray on strawberry leaves", "value": 41.14, "unit": "%"}, {"measurement": "Residual no of mites", "setting": "[3]; Day 1 after application, field spray on strawberry leaves, BVP10 389.5 μg/mL, reference diluted 3000 times", "value": 206}, {"measurement": "Control effect (%)", "setting": "[3]; Day 4 after application", "value": 83.71, "unit": "%"}, {"measurement": "Decline rate (%) of living mites", "setting": "[3]; [9]", "value": 33.14, "unit": "%"}, {"measurement": "Residual number of mites", "setting": "[3]; [9]", "value": 234}, {"measurement": "Control effect (%)", "setting": "[3]; Day 7 after application", "value": 95.45, "unit": "%"}, {"measurement": "Decline rate (%) of living mites", "setting": "[3]; [10]", "value": 77.14, "unit": "%"}, {"measurement": "Residual number of mites", "setting": "[3]; [10]", "value": 80}, {"measurement": "Medial Lethal Concentration (LC50, μg/mL)", "setting": "[4]; 24 hrs, regression Y = 2.3766 + 1.6846X (r = 0.9797)", "value": 36.08, "unit": "µg/mL"}, {"measurement": "Mortality (%)", "setting": "[4]; Dose 19.475 μg/mL", "value": 27.8, "unit": "%"}, {"measurement": "Probability Unit (P + 5)", "setting": "[4]; Dose 19.475 μg/mL", "value": 4.413}, {"measurement": "Mortality (%)", "setting": "[4]; Dose 38.95 μg/mL", "value": 51.4, "unit": "%"}, {"measurement": "Probability Unit (P + 5)", "setting": "[4]; Dose 38.95 μg/mL", "value": 5.039}, {"measurement": "Mortality (%)", "setting": "[4]; Dose 77.9 μg/mL", "value": 80.0, "unit": "%"}, {"measurement": "Probability Unit (P + 5)", "setting": "[4]; Dose 77.9 μg/mL", "value": 5.840}, {"measurement": "Mortality (%)", "setting": "[4]; Dose 389.5 μg/mL", "value": 94.7, "unit": "%"}, {"measurement": "Probability Unit (P + 5)", "setting": "[4]; Dose 389.5 μg/mL", "value": 6.616}]}]}
